We go through 16 substances from paper PMC6938348.

The target of assay [1] is Her2 on cells (SKOV3, JIMT-1, MCF7) (human (endogenous in SKOV3, JIMT-1, MCF7)) (UniProt P04626). The experiment in a line: flow cytometry on cells; saturation binding of full-size antibodies on live low-Her2 MCF7 cells, 4°C 2 h, 0 to 200 nM or 1 μM, washed, anti-human Fc AlexaFluor488-(Fab')2 detection; apparent KD.
The target is the same in assay [2]. The experiment in a line: flow cytometry on cells; saturation binding of full-size antibodies on live high-Her2 SKOV3 cells, 4°C 2 h, 0 to 200 nM or 1 μM, washed, anti-human Fc AlexaFluor488-(Fab')2 detection; apparent KD.
Assay [3] has as its target soluble Her2 ectodomain (Homo sapiens (assumed; species and source not stated)) (UniProt P04626). The experiment in a line: SPR; antibody captured on an anti-hFc CM-5 surface, soluble Her2 ectodomain flowed (monovalent binding); single cycle kinetics in duplicate, 25°C, PBS with […] EDTA and 0.05% Tween 20; 1:1 binding model; Biacore T200. A general note: SPR reads the build-up and loss of mass on a sensor chip optically.

Assay [4] addresses Her2 (human (endogenous in SKOV3 and JIMT-1)) (UniProt P04626).
Assay [5] has the same target. This is another data set of the same source.
The target of assay [6] is Herceptin full-size antibody variant 7–5 (H-Y57A, L-F53N, L-Y92A). Nature of the assay: SPR; antibody captured on an anti-hFc CM-5 surface, soluble Her2 ectodomain flowed (monovalent binding); single cycle kinetics in duplicate, 25°C, PBS with […] EDTA and 0.05% Tween 20; 1:1 binding model; Biacore T200.
Assay [7] has as its target Herceptin full-size antibody variant 7–6 (H-Y57A, L-N30D). The assay is described as above.
Assay [8] concerns the target bH1 full-size antibody variant 14–13 (H-D98W, H-G99D). The description is as above.
Assay [9] has as its target bH1 full-size antibody variant 15–13 (H-G99D). The description is as above.
In assay [10] the target is bH1 full-size antibody variant 16–13 (H-G99R). The description is as above.
Assay [11] addresses Her2 (human (endogenous in SKOV3 and JIMT-1)) (UniProt P04626). This is another data set of the same source.
Assay [12] concerns the target Her2 on cells (SKOV3, JIMT-1, MCF7) (human (endogenous in SKOV3, JIMT-1, MCF7)) (UniProt P04626).
The target is the same in assay [13]. This is another data set of the same source.
Assay [14] addresses Her2 (human (endogenous in SKOV3 and JIMT-1)) (UniProt P04626). This is another data set of the same source.
For assay [15] the target is unchanged. This is another data set of the same source.
For assay [16] the target is unchanged. This is another data set of the same source.

Like-named read-outs stand apart in the source and are kept apart here.

For “Herceptin full-size antibody variant 7–3 (H-Y57A, L-F53N)”, the Kd was found to be 0.67 nM in assay [1], 2.34 nM in assay [2] and 16.1 nM in [3].

For the substance “Herceptin full-size antibody variant 7–4 (H-Y57A, L-Y92A)”, the Kd is 0.47 nM in assay [1], 2.41 nM in [2] and 18 nM in assay [3].

For the substance “bH1 full-size antibody variant 16-13 (H-G99R)”, the EC50 of internalization, direct (pHAb-conjugated antibody variant), SKOV3 cells, 37°C, 18 h, high content imaging in [4] was 74.9 nM.

As for “Herceptin full-size antibody variant 2–4 (L-Y92A)”, the values for the Kd in assay [1], in assay [2] and in assay [3] were 0.39 nM, 1.98 nM and 2.32 nM, respectively.

On to “bH1 full-size antibody variant 14-13 (H-D98W, H-G99D)”, for which, in assay [5], the EC50 of internalization, direct (pHAb-conjugated antibody variant), SKOV3 cells, 37°C, 18 h, high content imaging is 59 nM and the EC50 of internalization, indirect (antibody variant + pHAb-secondary antibody), SKOV3 cells, 37°C, 18 h, high content imaging amounted to 3.75 nM.

With “Herceptin full-size antibody variant 2–3 (L-F53N)”, the Kd in assay [1] amounted to 0.3 nM; in assay [2], 1.95 nM; in assay [3], 2.1 nM.

A word on the kon: it is the rate constant with which the complex forms. A higher kon goes with faster complex formation. As for “soluble Her2 ectodomain (from UniProt P04626 23-652) (domain or fragment)”, the Kd in assay [6] came out at 68.1 nM; in assay [7] it was 43.2 nM; in [8], 253 nM; in assay [9] it was 298 nM; in assay [10], 417 nM. In addition, the figures for the kon in [8] and in assay [10] were 78000 M⁻¹ s⁻¹ and 120000 M⁻¹ s⁻¹, respectively.

Regarding “WT Herceptin full-size antibody (variant 2-1, Parent 1)”, in assay [11], the EC50 of internalization, direct (pHAb-conjugated antibody variant), JIMT-1 cells, 37°C, 18 h, high content imaging is 0.21 nM; the EC50 of internalization, direct (pHAb-conjugated antibody variant), SKOV3 cells, 37°C, 18 h, high content imaging came out at 0.32 nM; the EC50 of internalization, indirect (antibody variant + pHAb-secondary antibody), SKOV3 cells, 37°C, 18 h, high content imaging worked out at 0.55 nM.

“Herceptin full-size antibody variant 2–6 (L-N30D)”: the Kd was 0.51 nM in [1], 2.58 nM in assay [2] and 6.85 nM in assay [3].

As for “Herceptin full-size antibody variant 2–5 (L-F53N, L-Y92A)”, in assay [12], the IC50 of cytotoxicity, indirect ADC screen (DM1-conjugated secondary antibody), JIMT1 cells is 8.7 nM; the IC50 of cytotoxicity, indirect ADC screen (DM1-conjugated secondary antibody), MCF7 cells came out at 8.1 nM; the IC50 of cytotoxicity, indirect ADC screen (MMAE-conjugated secondary antibody), JIMT1 cells amounted to 24.4 nM; the IC50 of cytotoxicity, indirect ADC screen (MMAE-conjugated secondary antibody), MCF7 cells turned out to be 20.6 nM. In assay [13], this substance registered an IC50 of cytotoxicity, antibody directly conjugated to DM1, SKOV3 cells of 0.161 nM; an IC50 of cytotoxicity, antibody directly conjugated to PNU, MCF7 cells of 4.72 nM; an IC50 of cytotoxicity, antibody directly conjugated to PNU, SKOV3 cells of 0.138 nM. Further, in [2], the Kd is 1.98 nM. The same substance yielded a Kd in assay [3] of 22.6 nM.

As to “Herceptin full-size antibody variant 11-9 (H-D98F, H-D31M, L-D28K)”, in assay [14], the EC50 of internalization, direct (pHAb-conjugated antibody variant), JIMT-1 cells, 37°C, 18 h, high content imaging amounted to 0.07 nM; the EC50 of internalization, direct (pHAb-conjugated antibody variant), SKOV3 cells, 37°C, 18 h, high content imaging was 0.32 nM; the EC50 of internalization, indirect (antibody variant + pHAb-secondary antibody), SKOV3 cells, 37°C, 18 h, high content imaging was determined as 0.44 nM.

Take “Herceptin full-size antibody variant 12-9 (H-D98F, H-D31K, L-D28K)”: in [15], the EC50 of internalization, direct (pHAb-conjugated antibody variant), JIMT-1 cells, 37°C, 18 h, high content imaging was found to be 0.07 nM; the EC50 of internalization, direct (pHAb-conjugated antibody variant), SKOV3 cells, 37°C, 18 h, high content imaging worked out at 0.41 nM; the EC50 of internalization, indirect (antibody variant + pHAb-secondary antibody), SKOV3 cells, 37°C, 18 h, high content imaging amounted to 0.41 nM.

Turning to “Herceptin full-size antibody variant 7-5 (H-Y57A, L-F53N, L-Y92A)”, in [16], the EC50 of internalization, direct (pHAb-conjugated antibody variant), SKOV3 cells, 37°C, 18 h, high content imaging amounted to 19.2 nM and the EC50 of internalization, indirect (antibody variant + pHAb-secondary antibody), SKOV3 cells, 37°C, 18 h, high content imaging is 1.99 nM.

In [12], “Herceptin full-size antibody variant 7–5 (H-Y57A, L-F53N, L-Y92A)” had an IC50 of cytotoxicity, indirect ADC screen (DM1-conjugated secondary antibody), JIMT1 cells of 15.7 nM; an IC50 of cytotoxicity, indirect ADC screen (MMAE-conjugated secondary antibody), JIMT1 cells of 11000 nM; an IC50 of cytotoxicity, indirect ADC screen (MMAE-conjugated secondary antibody), MCF7 cells of 32.4 nM; an IC50 of cytotoxicity, indirect ADC screen (MMAE-conjugated secondary antibody), SKOV3 cells of 0.204 nM. Moreover, in assay [13], the IC50 of cytotoxicity, antibody directly conjugated to DM1, SKOV3 cells is 2.01 nM and the IC50 of cytotoxicity, antibody directly conjugated to PNU, SKOV3 cells turned out to be 2.08 nM. The Kd in assay [1] was 594 nM. Moreover, in assay [2], the Kd is 3.5 nM.

“Herceptin full-size antibody variant 7–6 (H-Y57A, L-N30D)”: the Kd in [1] amounted to 0.95 nM; in assay [2], 3.16 nM.

As for “Herceptin full-size antibody variant 7–1 (H-Y57A)”, the values for the Kd in assay [1], in [2] and in assay [3] were 0.52 nM, 2.27 nM and 1.6 nM, respectively.
